From patent publication US20130039923A1 (Novo Nordisk, published 2013)
Ends that are not written are not given here.

How the values were obtained:
[1] = target: T1, Peptide no. 18 (Figures 7A, 7B) (also: N-terminus acylated); experiment: array of terminally truncated, acylated hIL20 peptides on cellulose; fluorescein-labelled antibody; fluorescence as OD
T1 construct: peptide array on cellulose
T1 peptide: YTLRKISSLANSFLTIK
Description: (§1) The screenings were done using fluorescence labelled antibodies. The labelling was done by gel-filtering the antibody stock against 1% NaHCO3, using NAP5 column (GE Healthcare according the manual from manufacturer. This was followed by adding 25 mole equivalents of 5(6)-carboxyfluorescein N-hydroxysuccinimide ester (Sigma, C1609) dissolved in DMSO. The coupling was allowed to continue for 2 hours followed by a gelfiltration against TRIS washing buffer (50 mM TRIS, pH=7.4, 0.15M NaCl, 0.1 M ArgHCl, 0.05% Tween 20) in order to removed uncoupled fluorescein.
(§2) Screening of arrays were done by adding 10 μl of antibody to 30 ml incubation buffer (0.5% BSA, 50 mM TRIS, pH=7.4, 0.15M NaCl, 0.1 M ArgHCl, 0.05% Tween 20). The sheets were incubated for 1-2 hours, followed by washing five times with washing buffer. […] The fluorescence intensity were measured and transformed into digits that were exported to Prism 5 (Graph Pad Software, USA) for further analysis.

[2] = target: T2, Peptide no. 15 (Figures 7A, 7B) (N-terminus acylated); experiment: as above
T2 construct: peptide array on cellulose
T2 peptide: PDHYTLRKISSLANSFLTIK
Description: as §1, §2

[3] = target: T3, Peptide no. 2 (Figures 7A, 7B) (N-terminus acylated); experiment: as above
T3 construct: peptide array on cellulose
T3 peptide: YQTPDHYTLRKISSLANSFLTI
Description: as §1, §2

[4] = target: T4, Peptide no. 6 (Figures 7A, 7B) (also: N-terminus acylated); experiment: as above
T4 construct: peptide array on cellulose
T4 peptide: YQTPDHYTLRKISSLANS
Description: as §1, §2

[5] = target: T5, Peptide no. 3 (Figures 7A, 7B) (N-terminus acylated); experiment: as above
T5 construct: peptide array on cellulose
T5 peptide: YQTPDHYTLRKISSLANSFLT
Description: as §1, §2

[6] = target: T6, Peptide no. 14 (Figures 7A, 7B) (N-terminus acylated); experiment: as above
T6 construct: peptide array on cellulose
T6 peptide: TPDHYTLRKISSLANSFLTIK
Description: as §1, §2

[7] = target: T7, Peptide no. 13 (Figures 7A, 7B) (N-terminus acylated); experiment: as above
T7 construct: peptide array on cellulose
T7 peptide: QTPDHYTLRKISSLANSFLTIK
Description: as §1, §2

[8] = target: T8, Peptide no. 5 (Figures 7A, 7B) (also: N-terminus acylated); experiment: as above
T8 construct: peptide array on cellulose
T8 peptide: YQTPDHYTLRKISSLANSF
Description: as §1, §2

[9] = target: T9, Peptide no. 4 (Figures 7A, 7B) (N-terminus acylated); experiment: as above
T9 construct: peptide array on cellulose
T9 peptide: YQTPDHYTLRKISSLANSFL
Description: as §1, §2

[10] = target: T10, Peptide no. 17 (Figures 7A, 7B) (also: N-terminus acylated); experiment: as above
T10 construct: peptide array on cellulose
T10 peptide: HYTLRKISSLANSFLTIK
Description: as §1, §2

[11] = target: T11, Peptide no. 1 (Figures 7A, 7B) (N-terminus acylated); experiment: as above
T11 construct: peptide array on cellulose
T11 peptide: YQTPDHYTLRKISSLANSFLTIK
Description: as §1, §2

[12] = target: T12, Peptide no. 16 (Figures 7A, 7B) (also: N-terminus acylated); experiment: as above
T12 construct: peptide array on cellulose
T12 peptide: DHYTLRKISSLANSFLTIK
Description: as §1, §2

[13] = target: T13, Peptide no. 7 (Figures 7A, 7B) (also: N-terminus acylated); experiment: as above
T13 construct: peptide array on cellulose
T13 peptide: YQTPDHYTLRKISSLAN
Description: as §1, §2

[14] = target: T14, Peptide no. 87 (Figure 6A); experiment: 18mer hIL20 peptide array on cellulose, 4 residue walk; fluorescein-labelled antibody; fluorescence as OD
T14 construct: also called Peptide no
T14 peptide: PDHYTLRKISSLANSFLT
Description: as §1, §2

[15] = target: T15, Peptide no. 86 (Figure 6A); experiment: as above
T15 construct: also called Peptide no
T15 peptide: NYQTPDHYTLRKISSLAN
Description: as §1, §2

binding result [1]: no binding
binding result [2]: binds
binding result [3]: binds
binding result [4]: binds
binding result [5]: binds
binding result [6]: binds
binding result [7]: binds
binding result [8]: binds
binding result [9]: binds
binding result [10]: binds
binding result [11]: binds
binding result [12]: binds
binding result [13]: binds
binding result [14]: binds
binding result [15]: binds
B1: human anti-hIL20 monoclonal antibody 5B7 (antibody, human IgG4, V domains shown)
VH: QVQLVQSGAEVKRPGASVKVSCKASGYTFSSHIMHWVRQAPGQRLEWMGWINAGYGNTKYSQNFQDRVTITRDTSASTAYMELISLRSEDTAVYYCAREPLWFGELSPHDYYGMDVWGQGTTVTVSS
VL: AIQLTQSPSSLSASVGDRVTITCRASQGISSALAWYQQKPGKAPKLLIYDASSLESGVPSRFSGSGSGTDFTLTISSLQPEDFATYYCQQFNSYPLTFGGGTKVEIKR
notes: described as human IgG4; also called 5B7-wt
